From publication PMC11102832
Read-outs that look alike come from different tables or passages of the source.

Legend:
[1] = biological target: AM2 receptor (CLR-RAMP3) (human) (UniProt Q16602)
[2] = biological target: CGRP receptor (CLR-RAMP1) (human) (UniProt Q16602)
[3] = biological target: AM1 receptor (CLR-RAMP2) (human) (UniProt Q16602)
[4] = biological target: AM2 receptor (CLR-RAMP3) (human) (UniProt Q16602); remark: listed apart in the source
[5] = biological target: CGRP receptor (CLR-RAMP1) (human) (UniProt Q16602); remark: listed apart in the source
[6] = biological target: AM1 receptor (CLR-RAMP2) (human) (UniProt Q16602); remark: listed apart in the source
[7] = biological target: AM2 receptor (CLR-RAMP3) (human) (UniProt Q16602); remark: listed apart in the source
[8] = biological target: CGRP receptor (CLR-RAMP1) (human) (UniProt Q16602); remark: listed apart in the source
[9] = biological target: AM1 receptor (CLR-RAMP2) (human) (UniProt Q16602); remark: listed apart in the source
[10] = biological target: calcitonin receptor (CTR) (human)
[11] = biological target: amylin1 receptor (CTR-RAMP1) (human) (UniProt O60894)
Chain of amylin1 receptor (CTR-RAMP1) (human) (O60894 whole entry, looked up): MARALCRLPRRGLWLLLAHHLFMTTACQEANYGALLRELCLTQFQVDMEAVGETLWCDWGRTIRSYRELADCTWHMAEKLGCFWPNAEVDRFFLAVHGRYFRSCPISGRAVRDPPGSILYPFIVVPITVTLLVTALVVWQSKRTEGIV

Chain of AM1 receptor (CLR-RAMP2) (human) (Q16602 23-461, chain 1 of 2): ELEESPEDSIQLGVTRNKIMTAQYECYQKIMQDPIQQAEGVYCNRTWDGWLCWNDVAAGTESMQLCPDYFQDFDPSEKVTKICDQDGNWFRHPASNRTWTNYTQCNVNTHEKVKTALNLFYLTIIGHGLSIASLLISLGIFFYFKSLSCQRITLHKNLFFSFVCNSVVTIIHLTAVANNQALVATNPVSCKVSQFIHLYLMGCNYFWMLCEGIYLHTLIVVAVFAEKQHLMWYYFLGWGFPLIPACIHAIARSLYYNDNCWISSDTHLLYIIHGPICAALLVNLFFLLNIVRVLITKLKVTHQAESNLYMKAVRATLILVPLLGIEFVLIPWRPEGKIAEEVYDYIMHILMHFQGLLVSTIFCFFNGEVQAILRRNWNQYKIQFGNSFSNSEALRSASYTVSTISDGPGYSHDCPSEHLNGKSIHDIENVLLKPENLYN
Chain of AM1 receptor (CLR-RAMP2) (human) (O60895 43-175, chain 2 of 2, further chain): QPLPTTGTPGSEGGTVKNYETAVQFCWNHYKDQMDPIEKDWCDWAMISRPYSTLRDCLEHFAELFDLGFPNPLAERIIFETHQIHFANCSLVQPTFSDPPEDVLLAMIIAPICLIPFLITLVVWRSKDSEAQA
Chain of CGRP receptor (CLR-RAMP1) (human) (Q16602 23-461, chain 1 of 2): as the sequence (Q16602 23-461, chain 1 of 2) above
Chain of CGRP receptor (CLR-RAMP1) (human) (O60894 27-148, chain 2 of 2, further chain): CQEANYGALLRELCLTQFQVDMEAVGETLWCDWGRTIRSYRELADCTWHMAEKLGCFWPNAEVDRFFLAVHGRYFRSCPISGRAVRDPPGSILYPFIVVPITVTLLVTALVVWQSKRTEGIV
Chain of AM2 receptor (CLR-RAMP3) (human) (Q16602 23-461, chain 1 of 2): as the sequence (Q16602 23-461, chain 1 of 2) above
Chain of AM2 receptor (CLR-RAMP3) (human) (O60896 24-148, chain 2 of 2, further chain): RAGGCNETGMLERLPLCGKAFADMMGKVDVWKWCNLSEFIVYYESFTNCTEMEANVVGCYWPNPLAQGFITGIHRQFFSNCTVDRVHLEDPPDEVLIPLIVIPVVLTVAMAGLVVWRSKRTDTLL
Chain of calcitonin receptor (CTR) (human) (P30988 25-474): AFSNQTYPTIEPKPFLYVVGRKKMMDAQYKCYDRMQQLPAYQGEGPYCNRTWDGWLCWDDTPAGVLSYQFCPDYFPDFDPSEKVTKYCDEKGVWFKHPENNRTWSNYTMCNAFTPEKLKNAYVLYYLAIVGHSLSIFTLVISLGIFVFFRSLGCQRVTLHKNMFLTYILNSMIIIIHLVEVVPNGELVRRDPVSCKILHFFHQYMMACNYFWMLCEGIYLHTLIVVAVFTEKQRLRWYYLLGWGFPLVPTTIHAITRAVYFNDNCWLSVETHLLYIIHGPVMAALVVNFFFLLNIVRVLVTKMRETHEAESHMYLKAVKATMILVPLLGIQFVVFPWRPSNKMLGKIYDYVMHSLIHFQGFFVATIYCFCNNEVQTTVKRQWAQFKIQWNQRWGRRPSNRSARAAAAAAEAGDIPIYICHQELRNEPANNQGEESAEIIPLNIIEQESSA
Chain of βCGRP(1-37) (P10092 82-118): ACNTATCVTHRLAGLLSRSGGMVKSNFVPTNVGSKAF

Row | Molecule | pEC50 of cAMP signaling, end-point concentration-response (CAMYEL BRET, COS-7) [4] | pEC50 of cAMP signaling, end-point concentration-response (CAMYEL BRET, COS-7) [6] | pEC50 of cAMP signaling, end-point concentration-response (CAMYEL BRET, COS-7) [7] | pEC50 of cAMP signaling, end-point concentration-response (CAMYEL BRET, COS-7) [8] | pEC50 of cAMP signaling, end-point concentration-response (CAMYEL BRET, COS-7) [9] | other results
1 | AM2(8-22)-AM(29-38)-AM2(34-47) (peptide) |  |  |  |  |  | pEC50 of cAMP signaling, end-point concentration-response (CAMYEL BRET, COS-7) [1]: 8.72; pEC50 of cAMP signaling, end-point concentration-response (CAMYEL BRET, COS-7) [2]: 8.09; pEC50 of cAMP signaling, end-point concentration-response (CAMYEL BRET, COS-7) [3]: 7.34
2 | AM2/IMD(8-47) (peptide) | 9.33 | 8.24 | 9.27 | 9.17 | 8.51 | pEC50 of cAMP signaling, end-point concentration-response (CAMYEL BRET, COS-7) [5]: 8.86
3 | AM2/IMD(8-47) [R23K/R33K] (peptide) |  |  | 8.74 | 8.22 | 7.59 | 
4 | AM2/IMD(8-47) [R23Q/R33K] (peptide) |  |  | 7.75 | 7.5 | 6.9 | 
5 | AM(13-38)-AM2(23-33)-AM(39-52) (peptide) |  |  |  |  |  | pEC50 of cAMP signaling, end-point concentration-response (CAMYEL BRET, COS-7) [1]: 8.42; pEC50 of cAMP signaling, end-point concentration-response (CAMYEL BRET, COS-7) [2]: 8.08; pEC50 of cAMP signaling, end-point concentration-response (CAMYEL BRET, COS-7) [3]: 8.26
6 | βCGRP(1-37) (from UniProt P10092 82-118) (peptide) |  |  |  |  |  | pEC50 of cAMP signaling, end-point concentration-response (CAMYEL BRET, COS-7) [10]: 7.79
7 | KCNTATCATQRLANFLVRSSNNLGPVLPPTNVGSNTY [rat Amylin(1-37)] |  |  |  |  |  | pEC50 of cAMP signaling, end-point concentration-response (CAMYEL BRET, COS-7) [11]: 9.72; pEC50 of cAMP signaling, end-point concentration-response (CAMYEL BRET, COS-7) [10]: 7.63

Continued, in another order:

Row | pEC50 of cAMP signaling, end-point concentration-response (CAMYEL BRET, COS-7) [4] | pEC50 of cAMP signaling, end-point concentration-response (CAMYEL BRET, COS-7) [6] | pEC50 of cAMP signaling, end-point concentration-response (CAMYEL BRET, COS-7) [7] | pEC50 of cAMP signaling, end-point concentration-response (CAMYEL BRET, COS-7) [8] | pEC50 of cAMP signaling, end-point concentration-response (CAMYEL BRET, COS-7) [9] | Molecule | other results
8 | 8.9 | 7.66 |  |  |  | AM2/IMD(1-47) (peptide) | pEC50 of cAMP signaling, end-point concentration-response (CAMYEL BRET, COS-7) [5]: 7.81
9 |  |  | 9 | 8.51 | 7.62 | AM2/IMD(8-47) [R23K] (peptide) | 
10 |  |  | 9.01 | 8.54 | 7.8 | AM2/IMD(8-47) [R33K] (peptide) | 
11 | 8.84 | 7.94 |  |  |  | AM2/IMD-53 (peptide) | pEC50 of cAMP signaling, end-point concentration-response (CAMYEL BRET, COS-7) [5]: 8.36
12 | 9.63 | 9.54 | 9.48 |  | 9.52 | AM(13-52) (peptide) | 
